Assay results taken from PMC10090080.

Columns and labels:
[1] = biological target: pUL93 (human cytomegalovirus strain AD169); assay: cryo-EM structure
[2] = biological target: portal protein pUL104 (human cytomegalovirus strain AD169); assay: cryo-EM structure

Row | Substance | stoichiometry N [1] | stoichiometry N [2]
1 | pUL77 (natural protein) | 2 | 
2 | portal protein pUL104 (natural protein) |  | 12
